Here are results for 5 molecules from PMC4506568, “Targeting a Dynamic Protein–Protein Interaction: Fragment Screening against the Malaria Myosin A Motor Complex” (Chemmedchem, 2014).

Where no end group is shown, it is not given here. 8e = not defined here

Holding throughout (conditions): both partners purified
For data set [1], the target named is T1, Plasmodium falciparum myosin A tail domain interacting protein, residues 61–204 (PfMTIPΔ60) (Plasmodium falciparum, UniProt Q8I4W8 61-204).
T1 construct: source: 15N-labeled for NMR; not shown: His tag, N-terminal, kept
T1 sequence: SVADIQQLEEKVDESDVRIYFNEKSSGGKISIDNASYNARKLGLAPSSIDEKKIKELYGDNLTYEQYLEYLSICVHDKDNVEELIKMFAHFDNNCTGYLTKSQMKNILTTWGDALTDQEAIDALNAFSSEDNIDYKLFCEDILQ
Put plainly: differential scanning fluorimetry; 5 μM PfMTIPΔ60 with 200 μM peptide in buffer A (20 mM HEPES pH 7.5, 50 mM NaCl, 1 mM TCEP), 10× SYPRO Orange, 15–80 °C.

For data set [2], the target named is T1, Plasmodium falciparum myosin A tail …. The data set is described as follows: ITC; 303 K; cell with about 200 μL of 20 μM PfMTIPΔ60 in buffer A (20 mM HEPES pH 7.5, 50 mM NaCl, 1 mM TCEP); peptide added in 2 μL injections from 250 μM; single site fit; n=1. In general terms: Isothermal titration calorimetry measures the heat released or taken up as one component is titrated into another.

The target is the same in data set [3]. Put plainly: protein-detected NMR (1H,15N-HSQC); preformed complex of 100 μM 15N-labeled PfMTIPΔ60 with PfmyoA(799–818), buffer B (20 mM MOPS pH 7.0, 50 mM NaCl, 1 mM TCEP), 10 % D2O, 303 K; fragments 8 or 3 added.

B1: peptide–fragment chimera2 (fragment 8 functionality – glycine spacer – myoA tail from Leu 804) (peptide)
peptide: 8e-GLLRVQAHIRKKMVAQ
modifications: reading uncertain
notes: myosin A (PfmyoA) C-terminal tail, Plasmodium falciparum, PfmyoA(799–818) truncated at its N-terminal end to Leu 804; source: synthetic peptide (Fmoc-based solid-phase peptide synthesis)
Consider B1, for which the “Tm of the complex” value in data set [1] turned out to be 53.4 °C.

B2: peptide PfmyoA(803–818) (peptide)
peptide: SLLRVQAHIRKKMVAQ
notes: myosin A (PfmyoA) C-terminal tail, Plasmodium falciparum, residues 803–818; also called PfmyoA tail peptide; positive control PfmyoA tail peptide
As usually defined, the ΔTm is the change in melting temperature against a reference sample. Consider B2, for which the thermal shift (ΔTm) in data set [1] was determined as 15.3 °C.

B3: peptide–fragment chimera1 (fragment 8 functionality – glycine spacer – myoA tail from Leu 805) (peptide)
peptide: 8e-GLRVQAHIRKKMVAQ
modifications: reading uncertain
notes: myosin A (PfmyoA) C-terminal tail, Plasmodium falciparum, PfmyoA(799–818) truncated at its N-terminal end to Leu 805; called the shortest chimera; source: synthetic peptide (Fmoc-based solid-phase peptide synthesis)
As to B3, in data set [1], the “Tm of the complex” value is 47.8 °C.

B4: peptide–fragment chimera3 (fragment 8 functionality – glycine spacer – myoA tail from Ser 803) (peptide)
peptide: 8e-GSLLRVQAHIRKKMVAQ
modifications: reading uncertain
notes: myosin A (PfmyoA) C-terminal tail, Plasmodium falciparum, PfmyoA(799–818) truncated at its N-terminal end to Ser 803; that chimera3 begins at Ser 803 follows from the order of the list (Leu 805, Leu 804, Ser 803); source: synthetic peptide (Fmoc-based solid-phase peptide synthesis)
As a reminder, the Kd is the free concentration of one partner at which half of the binding sites on the other are occupied at equilibrium, for simple one-to-one binding. The low end stands for tighter binding, the high end for weaker binding. As for B4, the “Tm of the complex” value in data set [1] is 55.8 °C. This molecule returned a Kd in data set [2] of 52 nM.

B5: PfmyoA(799–818) (peptide)
peptide: KNIPSLLRVQAHIRKKMVAQ
notes: myosin A (PfmyoA) C-terminal tail, Plasmodium falciparum, residues 799–818; also called myoA tail; myoA tail peptide
Take B5: the binding result in data set [3] is “binds”.
